Test results as given in the supplement of paper PMC5998384.

Columns and labels:
HeLa Kyoto [1] = test: solubility change mitosis vs G1/S (difference of NP-40 vs SDS log2 ratios) (log2 ratio difference); higher = more soluble in mitosis
HeLa Kyoto [2] = test: melting temperature (median over replicates), in situ; higher = more thermally stable
HeLa Kyoto [3] = test: thermal stability score vs G1/S (z-score of summed log2 fold changes over temperatures); higher = more thermally stable than in G1/S
[4] = cell cycle stage: early G1 (4.5 h after nocodazole release)
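Wherever melting temperature (median over replicates), in situ is given: HeLa Kyoto cells synchronized by double thymidine or nocodazole block, proteins quantified by TMT10plex mass spectrometry, three independent biological replicates.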
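Wherever solubility change mitosis vs G1/S (difference of NP-40 vs SDS log2 ratios) is given: synchronized HeLa Kyoto cells (double thymidine block for G1/S, nocodazole release for mitosis), protein amounts in NP-40 versus SDS lysates quantified by mass spectrometry, three biological replicates.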
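Wherever thermal stability score vs G1/S (z-score of summed log2 fold changes over temperatures) is given: synchronized HeLa Kyoto cells, proteins quantified by TMT10plex mass spectrometry, three biological replicates, mitosis taken 0.5 h after nocodazole release, G1/S directly after double thymidine block.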

Substance | solubility change mitosis (log2) (HeLa Kyoto [1]) | further results
ACTA1 | -0.193 | –
AJUBA | -0.0418 | –
AK2 | 0.09 | –
BCKDK | -0.0559 | –
CHAF1B | 0.105 | –
CNOT11 | -0.0916 | –
COLGALT1 | 0.0451 | –
DNMT3B | 0.67 | –
DPP7 | 0.00739 | –
DPYSL2 | -0.147 | –
DYRK1A | 0.0078 | –
EI24 | -0.07 | –
EMG1 | 0.19 | –
ETF1 | -0.146 | –
FNTA | -0.132 | –
GAA | -0.231 | –
GADD45GIP1 | 0.258 | –
GORASP2 | -0.317 | –
HPCAL1 | -0.0209 | –
HSPG2 | -0.021 | –

Substance | solubility change mitosis (log2) (HeLa Kyoto [1]) | further results
IFI30 | 0.347 | –
LARP1 | 0.306 | –
LRPPRC | -0.118 | –
MALSU1 | -0.0468 | –
MEAF6 | 0.685 | –
MEHFDASLSTYFKALLGPRDTRVKGWFLLDNYIPTFICSVIYLLIVWLGPKYMRNKQPFSCRGILVVYNLGLTLLSLYMFCELVTGVWEGKYNFFCQGTRTAGESDMKIIRVLWWYYFSKLIEFMDTFFFILRKNNHQITVLHVYHHASMLNIWWFVMNWVPCGHSYFGATLNSFIHVLMYSYYGLSSVPSMRPYLWWKKYITQGQLLQFVLTIIQTSCGVIWPCTFPLGWLYFQIGYMISLIALFTNFYIQTYNKKGASRRKDHLKDHQNGSMAAVNGHTNSFSPLENNVKPRKLRKD [ELOVL5] | – | melting temperature (HeLa Kyoto [2]; cell cycle stage: G1/S): 53.3 °C; melting temperature (HeLa Kyoto [2]; cell cycle stage: mitosis): 53.7 °C; thermal stability score (HeLa Kyoto [3]; [4]): -0.682; thermal stability score (HeLa Kyoto [3]; cell cycle stage: mitosis): -0.967
MGKVWKQQMYPQYATYYYPQYLQAKQSLVPAHPMAPPSPSTTSSNNNSSSSSNSGWDQLSKTNLYIRGLPPHTTDQDLVKLCQPYGKIVSTKAILDKTTNKCKGYGFVDFDSPAAAQKAVSALKASGVQAQMAKQQEQDPTNLYISNLPLSMDEQELENMLKPFGQVISTRILRDSSGTSRGVGFARMESTEKCEAVIGHFNGKFIKTPPGVSAPTEPLLCKFADGGQKKRQNPNKYIPNGRPWHREGEVRLAGMTLTYDPTTAAIQNGFYPSPYSIATNRMITQTSITPYIASPVSAYQVQSPSWMQPQPYILQHPGAVLTPSMEHTMSLQPASMISPLAQQMSHLSLGSTGTYMPATSAMQGAYLPQYAHMQTTAVPVEEASGQQQVAVETSNDHSPYTFQPNK [RBMS1] | – | melting temperature (HeLa Kyoto [2]; cell cycle stage: G1/S): 53.4 °C; melting temperature (HeLa Kyoto [2]; cell cycle stage: mitosis): 52.4 °C; thermal stability score (HeLa Kyoto [3]; [4]): -0.758; thermal stability score (HeLa Kyoto [3]; cell cycle stage: mitosis): -1.24
MISLTDTQKIGMGLTGFGVFFLFFGMILFFDKALLAIGNVLFVAGLAFVIGLERTFRFFFQKHKMKATGFFLGGVFVVLIGWPLIGMIFEIYGFFLLFRGFFPVVVGFIRRVPVLGSLLNLPGIRSFVDKVGESNNMV [GOLT1B] | – | melting temperature (HeLa Kyoto [2]; cell cycle stage: G1/S): 59 °C; melting temperature (HeLa Kyoto [2]; cell cycle stage: mitosis): 54.6 °C; thermal stability score (HeLa Kyoto [3]; [4]): -3.12; thermal stability score (HeLa Kyoto [3]; cell cycle stage: mitosis): -4.7
MKSVIYHALSQKEANDSDVQPSGAQRAEAFVRAFLKRSTPRMSPQAREDQLQRKAVVLEYFTRHKRKEKKKKAKGLSARQRRELRLFDIKPEQQRYSLFLPLHELWKQYIRDLCSGLKPDTQPQMIQAKLLKADLHGAIISVTKSKCPSYVGITGILLQETKHIFKIITKEDRLKVIPKLNCVFTVETDGFISYIYGSKFQLRSSERSAKKFKAKGTIDL [POP4] | – | melting temperature (HeLa Kyoto [2]; cell cycle stage: G1/S): 52.4 °C; thermal stability score (HeLa Kyoto [3]; [4]): -1.07; thermal stability score (HeLa Kyoto [3]; cell cycle stage: mitosis): -2.15
MLTTLLPILLLSGWAFCSQDASDGLQRLHMLQISYFRDPYHVWYQGNASLGGHLTHVLEGPDTNTTIIQLQPLQEPESWARTQSGLQSYLLQFHGLVRLVHQERTLAFPLTIRCFLGCELPPEGSRAHVFFEVAVNGSSFVSFRPERALWQADTQVTSGVVTFTLQQLNAYNRTRYELREFLEDTCVQYVQKHISAENTKGSQTSRSYTSLVLGVLVGSFIIAGVAVGIFLCTGGRRC [PROCR] | – | melting temperature (HeLa Kyoto [2]; cell cycle stage: G1/S): 59.1 °C; melting temperature (HeLa Kyoto [2]; cell cycle stage: mitosis): 57.1 °C; thermal stability score (HeLa Kyoto [3]; [4]): 1.63; thermal stability score (HeLa Kyoto [3]; cell cycle stage: mitosis): 0.816
MPSPQLLVLFGSQTGTAQDVSERLGREARRRRLGCRVQALDSYPVVNLINEPLVIFVCATTGQGDPPDNMKNFWRFIFRKNLPSTALCQMDFAVLGLGDSSYAKFNFVAKKLHRRLLQLGGSALLPVCLGDDQHELGPDAAVDPWLRDLWDRVLGLYPPPPGLTEIPPGVPLPSKFTLLFLQEAPSTGSEGQRVAHPGSQEPPSESKPFLAPMISNQRVTGPSHFQDVRLIEFDILGSGISFAAGDVVLIQPSNSAAHVQRFCQVLGLDPDQLFMLQPREPDVSSPTRLPQPCSMRHLVSHYLDIASVPRRSFFELLACLSLHELEREKLLEFSSAQGQEELFEYCNRPRRTILEVLCDFPHTAAAIPPDYLLDLIPVIRPRAFSIASSLLTHPSRLQILVAVVQFQTRLKEPRRGLCSSWLASLDPGQGPVRVPLWVRPGSLAFPETPDTPVIMVGPGTGVAPFRAAIQERVAQGQTGNFLFFGCRWRDQDFYWEAEWQELEKRDCLTLIPAFSREQEQKVYVQHRLRELGSLVWELLDRQGAYFYLAGNAKSMPADVSEALMSIFQEEGGLCSPDAAAYLARLQQTRRFQTETWA [NDOR1] | – | melting temperature (HeLa Kyoto [2]; cell cycle stage: G1/S): 52.6 °C; thermal stability score (HeLa Kyoto [3]; [4]): -0.788; thermal stability score (HeLa Kyoto [3]; cell cycle stage: mitosis): -0.432
MRPL3 | -0.0054 | –
MRPL4 | -0.11 | –
MRPL18 | 0.126 | –
MRPL35 | 0.149 | –
MRPL40 | 0.188 | –
MRPL46 | 0.212 | –
MRPL47 | 0.0261 | –
MRPL53 | 0.25 | –
MRPS5 | 0.017 | –
